Among the data in patent US20240425885 are activity (1-depletion score) values, retold here.

Common to all, as to assay: cleavage_in_vitro
Data set [1] deals with T1, OMNI-99 (metagenomic, unknown).
T1 sequence: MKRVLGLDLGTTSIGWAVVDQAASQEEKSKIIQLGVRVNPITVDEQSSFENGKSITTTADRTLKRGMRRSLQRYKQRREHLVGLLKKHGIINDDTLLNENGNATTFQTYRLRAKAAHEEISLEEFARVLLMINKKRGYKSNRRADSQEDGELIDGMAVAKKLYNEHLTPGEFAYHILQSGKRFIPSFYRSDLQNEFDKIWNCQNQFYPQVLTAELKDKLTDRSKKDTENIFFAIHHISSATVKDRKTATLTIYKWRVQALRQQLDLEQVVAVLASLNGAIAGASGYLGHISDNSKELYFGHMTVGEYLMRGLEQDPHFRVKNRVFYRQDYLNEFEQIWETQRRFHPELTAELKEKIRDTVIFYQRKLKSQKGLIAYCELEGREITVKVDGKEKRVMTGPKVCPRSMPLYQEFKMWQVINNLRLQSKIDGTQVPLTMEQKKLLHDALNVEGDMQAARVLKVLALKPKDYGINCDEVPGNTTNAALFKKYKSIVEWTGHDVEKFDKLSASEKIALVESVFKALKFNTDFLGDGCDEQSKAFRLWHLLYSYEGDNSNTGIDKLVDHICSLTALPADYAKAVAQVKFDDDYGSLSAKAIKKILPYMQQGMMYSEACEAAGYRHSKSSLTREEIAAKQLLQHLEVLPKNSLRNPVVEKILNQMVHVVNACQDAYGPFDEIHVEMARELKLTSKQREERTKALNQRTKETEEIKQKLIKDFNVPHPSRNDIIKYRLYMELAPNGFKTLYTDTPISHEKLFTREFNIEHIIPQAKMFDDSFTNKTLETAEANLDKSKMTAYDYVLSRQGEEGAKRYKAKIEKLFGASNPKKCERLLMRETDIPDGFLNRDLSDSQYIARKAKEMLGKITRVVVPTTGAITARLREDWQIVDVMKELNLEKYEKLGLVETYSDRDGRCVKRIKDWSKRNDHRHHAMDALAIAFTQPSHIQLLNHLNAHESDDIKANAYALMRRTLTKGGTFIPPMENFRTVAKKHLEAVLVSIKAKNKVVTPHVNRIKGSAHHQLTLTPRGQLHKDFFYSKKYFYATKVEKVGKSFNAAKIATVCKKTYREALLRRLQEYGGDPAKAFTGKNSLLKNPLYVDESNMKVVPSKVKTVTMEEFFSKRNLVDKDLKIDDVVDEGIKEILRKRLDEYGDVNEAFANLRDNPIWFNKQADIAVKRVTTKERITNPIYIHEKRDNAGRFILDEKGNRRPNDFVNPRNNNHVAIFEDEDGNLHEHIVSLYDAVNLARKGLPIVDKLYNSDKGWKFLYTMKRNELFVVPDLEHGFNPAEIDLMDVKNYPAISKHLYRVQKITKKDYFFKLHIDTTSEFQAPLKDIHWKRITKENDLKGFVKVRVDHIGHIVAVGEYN
To be noted: TXTL; PAM NAGACNNN

For data set [2], the system named is OMNI-110 (metagenomic, unknown). To be noted: TXTL; PAM NNRTNCNN
Chain of OMNI-110 (metagenomic, unknown) (chain, as listed by the source): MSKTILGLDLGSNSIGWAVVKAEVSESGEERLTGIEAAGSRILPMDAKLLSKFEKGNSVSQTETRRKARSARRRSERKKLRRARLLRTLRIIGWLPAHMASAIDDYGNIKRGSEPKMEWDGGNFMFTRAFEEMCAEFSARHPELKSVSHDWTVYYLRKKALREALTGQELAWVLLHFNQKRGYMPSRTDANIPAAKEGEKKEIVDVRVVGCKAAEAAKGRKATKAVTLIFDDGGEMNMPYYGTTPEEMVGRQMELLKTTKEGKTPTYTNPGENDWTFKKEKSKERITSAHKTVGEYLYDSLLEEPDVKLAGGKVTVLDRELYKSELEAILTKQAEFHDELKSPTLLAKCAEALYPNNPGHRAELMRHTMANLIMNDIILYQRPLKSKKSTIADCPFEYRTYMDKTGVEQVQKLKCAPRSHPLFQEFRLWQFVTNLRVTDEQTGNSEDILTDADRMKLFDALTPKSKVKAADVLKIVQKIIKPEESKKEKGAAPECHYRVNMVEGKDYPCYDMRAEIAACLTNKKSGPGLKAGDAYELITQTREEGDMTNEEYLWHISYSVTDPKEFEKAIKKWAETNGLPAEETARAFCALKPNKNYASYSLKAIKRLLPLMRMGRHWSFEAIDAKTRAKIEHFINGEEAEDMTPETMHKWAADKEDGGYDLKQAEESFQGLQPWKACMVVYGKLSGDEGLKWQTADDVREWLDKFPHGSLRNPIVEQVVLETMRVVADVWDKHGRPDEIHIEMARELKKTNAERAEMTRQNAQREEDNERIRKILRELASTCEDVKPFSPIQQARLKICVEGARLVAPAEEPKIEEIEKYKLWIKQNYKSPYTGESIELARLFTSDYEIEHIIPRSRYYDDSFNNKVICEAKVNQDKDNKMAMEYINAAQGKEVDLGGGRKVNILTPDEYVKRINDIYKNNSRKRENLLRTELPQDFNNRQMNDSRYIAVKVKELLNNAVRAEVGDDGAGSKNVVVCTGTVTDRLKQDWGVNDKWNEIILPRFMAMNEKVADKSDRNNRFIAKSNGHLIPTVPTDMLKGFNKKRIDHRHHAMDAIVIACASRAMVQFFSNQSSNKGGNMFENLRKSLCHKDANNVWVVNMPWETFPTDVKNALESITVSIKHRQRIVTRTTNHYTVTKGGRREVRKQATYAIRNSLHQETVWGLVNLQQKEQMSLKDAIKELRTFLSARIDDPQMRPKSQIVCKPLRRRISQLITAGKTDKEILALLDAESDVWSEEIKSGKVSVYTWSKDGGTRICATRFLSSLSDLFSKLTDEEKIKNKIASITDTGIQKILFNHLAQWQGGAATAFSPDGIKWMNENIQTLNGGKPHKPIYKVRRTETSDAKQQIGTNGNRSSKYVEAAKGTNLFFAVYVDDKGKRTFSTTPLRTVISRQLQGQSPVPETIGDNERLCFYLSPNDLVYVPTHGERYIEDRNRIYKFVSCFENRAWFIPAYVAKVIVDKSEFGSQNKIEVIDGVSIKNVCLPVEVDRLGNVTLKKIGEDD
Data set [3] relates to T2, OMNI-109 (metagenomic, unknown).
T2 sequence: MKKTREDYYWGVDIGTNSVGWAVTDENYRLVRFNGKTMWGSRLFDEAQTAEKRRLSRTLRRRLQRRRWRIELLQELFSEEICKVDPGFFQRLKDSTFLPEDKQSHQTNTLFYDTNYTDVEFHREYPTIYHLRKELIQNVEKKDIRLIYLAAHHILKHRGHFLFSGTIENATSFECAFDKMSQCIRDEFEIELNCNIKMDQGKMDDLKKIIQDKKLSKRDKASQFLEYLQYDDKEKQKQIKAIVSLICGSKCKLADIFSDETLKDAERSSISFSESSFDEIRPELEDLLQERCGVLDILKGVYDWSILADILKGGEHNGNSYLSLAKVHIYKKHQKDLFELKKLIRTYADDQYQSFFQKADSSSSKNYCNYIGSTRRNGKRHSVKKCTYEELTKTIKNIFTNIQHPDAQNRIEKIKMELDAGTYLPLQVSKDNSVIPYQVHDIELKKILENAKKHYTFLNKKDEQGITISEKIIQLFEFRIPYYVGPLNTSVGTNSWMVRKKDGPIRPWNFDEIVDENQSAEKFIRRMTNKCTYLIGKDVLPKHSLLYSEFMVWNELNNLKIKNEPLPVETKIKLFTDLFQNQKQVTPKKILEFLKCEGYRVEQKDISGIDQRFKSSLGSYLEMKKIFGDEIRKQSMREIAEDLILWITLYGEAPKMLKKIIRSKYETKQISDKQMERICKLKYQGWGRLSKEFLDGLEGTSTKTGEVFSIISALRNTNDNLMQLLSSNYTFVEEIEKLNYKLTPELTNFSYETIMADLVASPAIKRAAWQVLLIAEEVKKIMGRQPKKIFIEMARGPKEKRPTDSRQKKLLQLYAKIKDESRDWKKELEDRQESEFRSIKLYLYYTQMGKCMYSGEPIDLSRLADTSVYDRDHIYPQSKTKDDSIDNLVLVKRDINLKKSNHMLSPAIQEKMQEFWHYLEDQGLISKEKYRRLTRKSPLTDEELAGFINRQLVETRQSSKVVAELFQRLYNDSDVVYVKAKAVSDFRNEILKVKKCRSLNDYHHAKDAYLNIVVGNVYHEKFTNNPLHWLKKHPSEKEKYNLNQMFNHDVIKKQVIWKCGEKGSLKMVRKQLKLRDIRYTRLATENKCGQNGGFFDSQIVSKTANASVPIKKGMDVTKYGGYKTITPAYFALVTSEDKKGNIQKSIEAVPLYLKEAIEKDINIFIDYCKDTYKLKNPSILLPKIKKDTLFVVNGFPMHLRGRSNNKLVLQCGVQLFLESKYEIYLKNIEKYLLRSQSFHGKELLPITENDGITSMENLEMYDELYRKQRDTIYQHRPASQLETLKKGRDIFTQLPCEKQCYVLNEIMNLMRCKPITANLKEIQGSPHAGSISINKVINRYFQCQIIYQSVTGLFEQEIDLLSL
To be noted: TXTL; PAM NNAARCNN

For data set [4], the system named is T3, OMNI-106 (metagenomic, unknown).
T3 sequence: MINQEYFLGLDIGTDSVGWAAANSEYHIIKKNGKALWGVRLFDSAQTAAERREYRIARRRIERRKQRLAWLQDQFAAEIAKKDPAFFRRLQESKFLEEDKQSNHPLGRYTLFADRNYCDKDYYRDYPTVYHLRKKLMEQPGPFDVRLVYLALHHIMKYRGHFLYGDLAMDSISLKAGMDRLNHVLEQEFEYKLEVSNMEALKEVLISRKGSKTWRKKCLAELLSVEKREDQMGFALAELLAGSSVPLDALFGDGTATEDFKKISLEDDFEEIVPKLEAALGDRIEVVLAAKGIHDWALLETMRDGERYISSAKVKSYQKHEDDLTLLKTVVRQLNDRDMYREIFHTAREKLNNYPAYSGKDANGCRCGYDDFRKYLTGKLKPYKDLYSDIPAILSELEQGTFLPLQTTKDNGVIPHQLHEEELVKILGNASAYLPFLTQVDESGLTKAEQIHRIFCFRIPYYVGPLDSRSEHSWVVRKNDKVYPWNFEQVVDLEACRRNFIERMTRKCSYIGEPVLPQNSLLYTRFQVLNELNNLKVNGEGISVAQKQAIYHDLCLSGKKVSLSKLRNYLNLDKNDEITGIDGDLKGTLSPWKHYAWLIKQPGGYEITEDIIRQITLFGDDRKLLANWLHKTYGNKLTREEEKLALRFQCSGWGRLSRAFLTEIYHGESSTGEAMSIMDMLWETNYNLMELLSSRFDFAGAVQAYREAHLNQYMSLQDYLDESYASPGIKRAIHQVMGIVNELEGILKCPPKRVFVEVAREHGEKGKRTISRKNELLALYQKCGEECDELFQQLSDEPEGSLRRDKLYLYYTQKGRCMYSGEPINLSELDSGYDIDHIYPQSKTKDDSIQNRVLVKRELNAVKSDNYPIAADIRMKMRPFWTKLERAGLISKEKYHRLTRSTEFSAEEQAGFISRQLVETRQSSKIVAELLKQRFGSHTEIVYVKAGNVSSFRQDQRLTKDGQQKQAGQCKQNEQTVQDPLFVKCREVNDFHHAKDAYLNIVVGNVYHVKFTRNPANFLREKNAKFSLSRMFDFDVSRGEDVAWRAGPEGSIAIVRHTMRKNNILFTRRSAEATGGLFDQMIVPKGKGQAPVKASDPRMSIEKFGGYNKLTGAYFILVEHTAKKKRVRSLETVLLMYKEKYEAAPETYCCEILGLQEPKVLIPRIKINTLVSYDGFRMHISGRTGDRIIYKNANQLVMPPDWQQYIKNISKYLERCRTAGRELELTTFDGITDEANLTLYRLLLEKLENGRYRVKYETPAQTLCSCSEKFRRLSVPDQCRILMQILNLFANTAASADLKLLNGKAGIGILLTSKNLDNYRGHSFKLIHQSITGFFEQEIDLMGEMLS
To be noted: TXTL; PAM NRKAACNN

“GGAAGAGCAGAGCCUUGGUCUCGUUGUGAAUUGCUUUCGAAAGAAGCAAUUCACAAUAAGGAUUAUUCCGUUGUGAAAACAUCAGGAGCGGGUUCUACUCGCUCUUUUUU / GGAAGAGCAGAGCCTTGGTCTCNNNNNNNN / NNNNNNNNGAGACCAAGGCTCTGCTCTTCC [T2 sgRNA 10 V1 ; T2 protospacer + 8N PAM library (pbPOS T2)]” displayed an activity (1-depletion score) in data set [1] of 0.93.
In data set [2], “GGAAGAGCAGAGCCUUGGUCUCGUUGUGAUUCGCUUCCGAAAGCAAGCGAAUCACAAUAAGGAUUAUUCCGUUGUGAAAACAUUUAAGUCGGGCCUCCUUCGGUUGGCUCGGCUUUUUUU / GGAAGAGCAGAGCCTTGGTCTCNNNNNNNN / NNNNNNNNGAGACCAAGGCTCTGCTCTTCC [T2 sgRNA 18 V1 ; T2 protospacer + 8N PAM library (pbPOS T2)]” returned an activity (1-depletion score) of 0.95.
In data set [3], “GGAAGAGCAGAGCCUUGGUCUCGUUUGAGAGUAGUGUAAGAAAUUACACUACAAGUUCAAAUAAAAAUUUAUUCUAAUCGCUCUUCGGAGCCUCCACAGGAGUGGAUUUAAGACUUGCUUCGGCGAGUCUUUUUU / GGAAGAGCAGAGCCTTGGTCTCNNNNNNNN / NNNNNNNNGAGACCAAGGCTCTGCTCTTCC [T2 sgRNA 17 V1 ; T2 protospacer + 8N PAM library (pbPOS T2)]” had an activity (1-depletion score) of 0.94.
Sequence “GGAAGAGCAGAGCCUUGGUCUCGUUUGAGAGUCGUGCUGGAAACAACACGACGGGUUCAAAUACGGCUUUGCCAAAACCGCUGGUUUGAUCCAGCUUCACAGUGUGUGAGGGUAAAAAGUCCGCUAUGCGGACUUUUUUU / GGAAGAGCAGAGCCTTGGTCTCNNNNNNNN / NNNNNNNNGAGACCAAGGCTCTGCTCTTCC [T2 sgRNA 15 V1 ; T2 protospacer + 8N PAM library (pbPOS T2)]” yielded an activity (1-depletion score) in data set [4] of 0.95.
